Laboratory results taken from article PMC10439114.

Molecular target: T1, CD155 with a C-terminal V5 epitope tag, on Raji cells (UniProt P15151)
T1 sequence: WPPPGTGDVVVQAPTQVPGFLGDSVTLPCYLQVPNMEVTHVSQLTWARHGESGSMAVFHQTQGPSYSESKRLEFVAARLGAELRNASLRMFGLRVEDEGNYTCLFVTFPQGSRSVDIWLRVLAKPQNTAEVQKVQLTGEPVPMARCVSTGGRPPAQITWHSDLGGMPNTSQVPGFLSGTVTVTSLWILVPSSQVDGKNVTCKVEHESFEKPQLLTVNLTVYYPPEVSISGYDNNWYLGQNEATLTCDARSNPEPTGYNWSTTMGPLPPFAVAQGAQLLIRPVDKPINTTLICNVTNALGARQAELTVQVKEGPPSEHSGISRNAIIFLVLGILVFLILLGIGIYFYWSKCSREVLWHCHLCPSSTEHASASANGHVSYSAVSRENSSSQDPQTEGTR

- IL-2 release of Jurkat TIGIT-SNAP cells after 6 h with SEE-pulsed Raji-CD155 relative to Raji-CD111 co-cultures (ELISA): 37%
- log2-fold decrease of IL-2 release of Jurkat TIGIT-SNAP cells with SEE-pulsed Raji-CD155 against Raji-CD111 (ELISA): 1.45 log2 fold
B1: TIGIT-SNAP (wild-type TIGIT with a C-terminal SNAP-tag, on Jurkat cells) (receptor)
chain: MMTGTIETTGNISAEKGGSIILQCHLSSTTAQVTQVNWEQQDQLLAICNADLGWHISPSFKDRVAPGPGLGLTLQSLTVNDTGEYFCIYHTYPDGTYTGRIFLEVLESSVAEHGARFQIPLLGAMAATLVVICTAVIVVVALTRKKKALRIHSVEGDLRRKSAGQEEWSPSAPSPPGSCVQAEAAPAGLCGEQRGEDCAELHDYFNVLSYRSLGNCSFFTETG
